Key:
CT26 cells = assay: In vivo behaviour and tumor accumulation in CT26 tumor animal model; set-up: species or system mice; settings: 5 mg/kg i.v.
Procedure: […] nude mice (6 weeks old, 20-25 g, male) bred in a sterile environment were used. The mice were acclimated for 2 weeks prior to starting the experiment. The mice had ad libitum access to food and water in cages maintained at a temperature of 22±2° C. and a humidity of 40-60% on a 12 h light and dark cycle during the experiment. All experimental procedures were performed according to the guidelines of the Institutional Animal Care and Use Committee of the Korea Institute of Science and Technology.
Colon cancer was induced in the male nude mice. To this end, 1×10^6 CT26 cells were subcutaneously inoculated into the left thigh of each mouse to construct a tumor animal model. Thereafter, the tumor was allowed to grow until its volume reached ˜200-250 mm^3 prior to the experiment. For sample administration, the mice were randomly divided into 4 groups, 24 animals per group. Verteporfin (VPF) was intravenously administered at a concentration of 5 mg/kg (“VPF-administered group”) and the self-assembled nanoparticles (LT-NPs) were intravenously administered at a concentration of 5 mg/kg (“LT-NPs-administered group”).
The in vivo behaviors of the drugs in the administered groups were evaluated by near-infrared imaging using an IVIS Lumina system for 0.5-9 h.

[1] = Stability of LT-NPs in mouse plasma (size by DLS); type: in vitro ADME, BALB/c mice; settings: BALB/c mouse plasma, 0-72 h
Procedure: In this example, the stability of the self-assembled nanoparticles (LT-NPs) in a body fluid was determined. To this end, the self-assembled nanoparticles (LT-NPs) were stored in plasma samples from BALB/c mice for 0, 1, 3, 6, 24, 48, and 72 h and their sizes were measured by dynamic light scattering (DLS).

[2] = ROS generation under 671 nm laser (RNO test); settings: 10 μM, 671 nm laser 40 mW 250 sec
Procedure: ROS generation was analyzed by RNO test, where bleaching of N-nitrosodimethylaniline (RNO) by ROS was observed as a decrease in absorbance at 440 nm.
To determine the reactivity of the self-assembled nanoparticles (LT-NPs) to visible light, experimental samples and a comparative sample were prepared as follows. Each sample was mixed with a 10 μM RNO standard solution and irradiated with visible light using a 671 nm laser (SDL-671 series, Shanghai Dream Laser Technology Co., Ltd.) at a power of 40 mW for 250 sec. Absorbances were measured at 440 nm over time while being irradiated with visible light.
Control sample (VPF, control): Verteporfin (VPF) (10 μM) was mixed with physiological saline (1 mL).
Experimental sample 1 (LT-NPs(-Cat-B)): The self-assembled nanoparticles (LT-NPs) (10 μM) prepared in Example 1 were mixed with physiological saline (1 mL).
Experimental sample 2 (LT-NPs(+Cat-B)): The self-assembled nanoparticles (LT-NPs) (10 μM) prepared in Example 1 were mixed with distilled water (200 μL) containing cathepsin B (10 μg) and 1.2 mM histidine. […]
First, the absorbance before laser irradiation was defined as 1 and reduction rates of the absorbance values measured at 440 nm with respect to the absorbance before laser irradiation were calculated. The calculated values were transformed into negative natural logs (−In(y)), which were then multiplied by 100. […]

[3] = system: spleen cells isolated from Balb/c mice; assay: Immune cell activation: treated CT26 cells co-cultured with spleen cells (flow cytometry); type: cell-based; settings: 5 μM, co-culture with spleen cells 24 h; versus doxorubicin or verteporfin alone
Procedure: First, CT26 cells were plated in 100-pi cell culture dishes at a density of 1×10^6 cells/dish and cultured for stabilization for 24 h. Doxorubicin (DOX) (5 μM), verteporfin (VPF) […] or the self-assembled nanoparticles (LT-NPs) (5 μM) were added to each dish. After 24-h culture, one half was exposed by irradiation with visible light using a 671 nm laser at 40 mW for 250 sec (+L) and the other half was not irradiated with visible light for comparison (−L). 1×10^6 spleen cells isolated from Balb/c mice were added to each sample, followed by co-culture for 24 h (FIG. 4I).
The degrees of differentiation into mature dendritic cells and activated T cells in each sample were analyzed using a flow cytometer.

In the case of `C=CC1=C(C)/C2=C/C3=NC(Cc4[nH]c(c(CCCCC(=O)OC)c4C)CC4N=C(CC1N2)C(C)=C4CCC(=O)N[C@H](Cc1ccccc1)C(=O)N[C@@H](CCCNC(=N)N)C(=O)N[C@H](CCCNC(=N)N)C(=O)NCC(=O)NC1C[C@@H](OC2C[C@](O)(C(=O)CO)Cc4c(O)c5c(c(O)c42)C(=O)c2c(OC)cccc2C5=O)O[C@@H](C)[C@H]1O)[C@@]1(C)C3=CC=C(C(=O)OC)[C@@H]1C(=O)OC` (some centres unmarked) [LT-NPs, VPF-FRRG(SEQ ID NO: 1)-DOX], the “accumulation in cancer cells (histological analysis)” value (CT26 cells) is reported as “accumulated in cancer cells with significantly higher efficacy than the conventional anticancer drug”, the “fluorescence intensity in cancer cells (near-infrared imaging)” value (CT26 cells; 0.5-9 h, IVIS Lumina) is reported as “higher than those of Group 1 treated with verteporfin” and the “fluorescence intensity in cancer cells (drug accumulated in tissues)” value (CT26 cells; liver, lung, spleen, kidney, heart, tumor) is reported as “higher than those of Group 1 treated with verteporfin”. For the same compound, the “time-dependent change in size in mouse plasma” value [1] was “stably maintained their morphology in the body fluid”, the “amount of ROS generated, relative to verteporfin (VPF)” value ([2]; cleaved with cathepsin B) was 80% and the “reactivity with visible light (ROS generation), stable state” value ([2]; without Cat-B) was “hardly reactive with visible light”. For the same compound, the “degree of differentiation into activated T cells” value [3] was “significantly higher” and the “degree of differentiation into mature dendritic cells” value [3] was “significantly higher”.
